Measurements reported in paper PMC2817712.
pKd: −log10 of the molar value.

Target: CheY6 (wild type) with an engineered C-terminal biotinylation tag, for SPR surfaces (R. sphaeroides)
Test: SPR; Biacore T100, 25°C; response regulator biotinylated in a C-terminal tag and held on streptavidin (200-1,500 RU); CheA3P1 injected at 120 nM to 2 mM; standard buffer (30 mM Hepes pH 7.5, 150 mM NaCl, 5 mM sodium acetate, 2 mM manganese chloride, 2 mM TCEP) with 0.05% Tween 20; equilibrium binding, 1:1 Langmuir model

Chain of CheY6 (wild type) with an engineered C-terminal biotinylation tag, for SPR surfaces (R. sphaeroides) (Q8KLS1 entry or part of it, stated change not applied): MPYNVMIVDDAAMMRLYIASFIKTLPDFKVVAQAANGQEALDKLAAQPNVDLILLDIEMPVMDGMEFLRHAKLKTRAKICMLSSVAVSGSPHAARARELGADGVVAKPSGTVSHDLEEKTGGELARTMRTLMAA

- pKd: 3.66
Substance: CheA3P1, the isolated P1 (Hpt, histidine-containing phosphotransfer) domain of CheA3 (residues 1-135), unphosphorylated (domain or fragment)
